Assay: soluble on expression in E. coli; label from the status in PepcDB or PDB records

Row | Sequence | soluble on expression in E. coli
1 | AAISLDEQWRMIKENQLMMIAHGIASPRLPEASNLWLISLKLWSCESEIIDEQTFRRSFSDPALSHALDQRVCHDFFQQAAKAVASKGLSIALPLSVAGLSSATLVNELLEQLENSPLPARLLHLIIPAEAIFDHAESVQKLRLAGCRIVFSQVGRDLQIFNSLKANMADYLLLDGELCANVQGNLMDEMLITIIQGHAQRLGMKTIAGPVVLPLVMDTLSGIGVDLIYGDVIANAQPLDLLVNRSYFAIN | not soluble
2 | AAMKVYDVTAPIYEGMPVYKNKPEKQPKRTTITNGYVTESRIDMDVHTGTHIDAPLHMVEGGATFETIPLNDLVGPCKLFDLTHVNDRITKDDIAHLDIQEGDFVLFKTKNSFEDAFHFEFIFVAEDAARYLADKQIRGVGIDALGIERAQEGHPTHKTLFSAGVIIIEGLRLKDVPEGRYFMVAAPLKLVGTDAAPARVLLFDREP | soluble
3 | AARLPVAPRHLPTLEKFRAEQPTVQGTSTPTISANAALLIGSLLQSEKLPFEVMAARLSPERYALQQFHGSDLQQMLGRFAEPGHLPGKAETEQLIKGFARSLADQLEHFQLMHDATAEAFGPGGLRDRNTLAVSQAALGEYAGRASKSIEAGLNHSLAVLDERIAALDSQLEGATEDSRPVLLMDRQALETARAMLSDLHVDFCKSPEAKRLSAVAAHTQMDALIDKLNVDRSSVGGWKGIGPIVAAAVPQFMVSMLHLGYIRTATSDAMKDAVPEKSADASMKRALAVGLTAGVAHEGVTNLLKPMVQAGFQKAGLNERLNMVPLKGIDTDSVIPDPFELKNDNGALVRKTPEEAAEDKAFVASERAVLNQKKVQVSSTHPLGEMIPYGAFGGGQAVRQMLNDFNLLNGQTLSARAVTSGIAGAISATTQTIAQLNSTYVDPRGRKIPVFTPDRANADLGKDLAKGLDLREPAVRTAFYSKAVSGVQSAALNGALPSVAVQPQGASGTLSAGNIMRNMALAATGSVSYLSTLYANQSVTAEAKALKEAGMGGATPMVARTETALSNIRHPDRASLPHTFQPDTLGGVPRAVENAYHMARGALQLPTQVVVDTVRVVEDGVASGVSSLRDAHKPAET | not soluble
4 | ADILLLDNIDSFTWNLADQLRTNGHNVVIYRNHIPAQTLIDRLATMKNPVLMLSPGPGVPSEAGCMPELLTRLRGKLPIIGICLGHQAIVEAYGGYVGQAGEILHGKATSIEHDGQAMFAGLANPLPVARYHSLVGSNVPAGLTINAHFNGMVMAVRHDADRVCGFQFHPESILTTQGARLLEQTLAWAQQK | soluble
5 | ADLPGKGITVNPVQSTITEETFQTLLVSRALEKLGYTVNKPSEVDYNVGYTSLASGDATFTAVNWTPLHDNMYEAAGGDKKFYREGVFVNGAAQGYLIDKKTADQYKITNIAQLKDPKIAKLFDTNGDGKADLTGCNPGWGCEGAINHQLAAYELTNTVTHNQGNYAAMMADTISRYKEGKPVFYYTWTPYWVSNELKPGKDVVWLQVPFSALPGDKNADTKLPNGANYGFPVSTMHIVANKAWAEKNPAAAKLFAIMQLPVADINAQNAIMHDGKASEGDIQGHVDGWIKAHQQQFDGWVNEALAAQK | soluble
6 | ADVAIVGGGFVGLWTAITLKQLEPDARVLLLEQDVCGGGASGRNGGFVMSWWPKIGTLLGFCSEAQARFLGESAERAIQELGEFCARHDIDAHFQQKGWLWTATTAHHLDAWNDTLAACERLGVSPFERLDASEVARRTGSPVHLAGVFERSNATVQPALLVQGMRRVALALGVEIHERCGVSQIVPGQPAQLLSAGARVQAKAVVLATNAWSAALPRLSRLIVPVNSSIAVTEAIPQRLERIGWTGGEAITDSQLMVDYYRTTRDGRIAFGKGTGALSYGSRIGRVFDVDRESLALTEADFRRTYPSLGDIPLVDGWSGPIDRTYDSLPVFGRLHENIHYGIGWSGNGVGPSRLGGRILASLALGRDDPWSR | not soluble
7 | AEAAPCETADGTYHIALPEAENPPVLIFLHGHGGEGAATLRNARLVAPLLARGWAVIAPDGQSRAPGRPRSWTFFPGWEGRDEPAFLAQVLGEASARFGLDADRAVLGGFSAGAFMVTYLACATPGAYRAYVPVSGGFWRPQPDRCAGPVHLFQTHGWADPVVPLEGRFLGGGRFQQGDIFAGLELWRQTNGCVEHKPDGFDQTGPFLRRRWQGCSGGSLEFALFPGGHTVPEGWADMMADWVEAL | not soluble
8 | AEAEFNNYCKIKCLKGGVHTACKYGSLKPNCGNKVVVSYGLTKQEKQDILKEHNDFRQKIARGLETRGNPGPQPPAKNMKNLVWNDELAYVAQVWANQCQYGHDTCRDVAKYQVGQNVALTGSTAAKYDDPVKLVKMWEDEVKDYNPKKKFSGNDFLKTGHYTQMVWANTKEVGCGSIKYIQEKWHKHYLVCNYGPSGNFKNEELYQTK | soluble
9 | AELRSREYAEILKQKQELSLVEAGEFNSLGKRNGRVYFVETFDTESGIMKNLFLREQDKNGGDNIIFAKEGNFSLNDNKRTLELRHGYRYSGTPGRADYNQVSFQKLNLIISTTPKLIDPVSHRRTIPTAQLIGSSNPQHQAELMWR | soluble
10 | AGALWEIEKELFTKLPAPSSAINSHLQPAKPKVPQKKPSKWDPPAEFKVDLSTAVSYNDIGDINWKNLQQFKGIERSEKGTEGLFFVETESGVFIVKRSTNIESETFCSLLCMRLGLHAPKVRVVSSNSEEGTNMLECLAAIDKSFRVITTLANQANILLMELVRGITLNKLTTTSAPEVLTKSTMQQLGSLMALDVIVNNSDRLPIAWTNEGNLDNIMLSERGATVVPIDSKIIPLDASHPHGERVRELLRTLIAHPGHESSQFHSIRDIITLYTGYDVGTEGSISMQEGFLATVRECASFDLDAFERELLSWQESLQKCHNLSISPQAIPFILRMLRIFH | soluble
11 | AGMDVRESISLQNQVSMNLAKHVITTVSQNSNVIFSPASINVVLSIIAAGSAGATKDQILSFLKFSSTDQLNSFSSEIVSAVLADGSANGGPKLSVANGAWIDKSLSFKPSFKQLLEDSYKAASNQADFQSKAVEVIAEVNSWAEKETNGLITEVLPEGSADSMTKLIFANALYFKGTWNEKFDESLTQEGEFHLLDGNKVTAPFMTSKKKQYVSAYDGFKVLGLPYLQGQDKRQFSMYFYLPDANNGLSDLLDKIVSTPGFLDNHIPRRQVKVREFKIPKFKFSFGFDASNVLKGLGLTSPFSGEEGLTEMVESPEMGKNLCVSNIFHKACIEVNEEGTEAAAASAGVIKLRGLLMEEDEIDFVADHPFLLVVTENITGVVLFIGQVVDPLH | soluble
12 | AHHHHHHASAKWVCKICGYIYDEDAGDPDNGISPGTKFEELPDDWVCPICGAPKSEFEKLEDGSGTREIIIDCYLHDMCEGLNIMTVRGSAYLLVGQNVYPLIEGIVPPTLHFYIKEGYLDIYGFWRVEGEEHAAHIRVAIDKVHVVGTSIIVEPHGALENFDASVVIKLDASEKDLEQLKKIINEEKFWTKEEHGEVISTYLEKHLREKRKKKE | soluble
13 | AHHHHHHASAKWVCKICGYIYDEDAGDPDNGISPGTKFEELPDDWVCPICGAPKSEFEKLEDGSQGYSRRGNMMIILKPLIEVDLPEDFVDIIKAKLKGQTVKSGEIITVDILGKPIEFKVLYAEPSPVKVTQKTQIKFAKGNVFEVSLDFKAKDCIITDAFIVLTGESEVLILNHNFEEIRRIEFENLKKIVVKGDLVVLIGEEKVKILKLQ | soluble
14 | AHHHHHHGSGKTGIEYFDNFILKDGFPDGSLILVAGEPGAGKTIFSATYLYNGAKKFGEKGVYISLAETKREFYEAMKQLGMDFEELEKKGLFRFIDLVTVSRGAIEKEIQFLMSEISSFQPKRVVIDSISVFAQILGLEKTRVFLHTMLGRFIKAYNATALLIAEKPMGSKTIGHGVEEFVVDGVIILKYKSLGEITRRVMEIPKMRRRSVERAEYEYVITKNGIEFLELPDLVRDKGEYTLEKITTGIEKLDKMLDGGYTRDQMF | soluble
15 | AHHHHHHGSGVEKVPKYDIPVKKVEYVFIELDKMKPHEQLVQRELEDFIESVTGSGIFWKPMLLAKIPGTDEYLIVDGHHRWAGLQKLGAKRAPSVILDYFDEGVKVYTWYPAFKGDVNKVIERLKAEGLEVIEDEKAEEKAEKGEIAFALIGEKSFAIPGGLEEQKKVSKVLDEMDQAKEIELVYYGLKEDAKADMEKGEIDYVFIRKAPTKEEVMELVKRGEVFSPKTTRHVLPFIPDKIDVKLEDLF | soluble
16 | AHHHHHHGSIIIMDNGGQYVHRIWRTLRYLGVEAKIIPNTTPLDEIKAMKPKGIIFSGGPSLENTGNCEKILEHYEEFNVPILGICLGHQLIAKFFGGEVGRGEKAEYSLVEIEIIDENDIFKGLPRKVRVWESHMDEVKKLPPKFKLLARSDTCPVEAMKHEELPIYGVQFHPEVAHTEHGADILRNFAKICGEL | soluble
17 | AHHHHHHGSIPIAKPLIGEEEINAVIEVLKSGMLAHGKEVEAFEREFASYIGVKHGIAVVNGTAALDIALKALKIKPGDEIITTPFTFIASANAILFQGAKPVFADIDPKTYNLDPDEVLEKINEKTKAIIVVHLYGQPADMKAFKEIAEDYKLYLIEDCAQAHGAEFEGQKVGTFGDIAAFSFYPTKNMTTGEGGMVLTNDDELARRARLIRNHGQTEKYLHEELGYNLRMTNIAAALGRVQLRKLDKWNEIRIENAELLTKGIKRIKGLTPPYVDKRVKHVFHQYVIRVEDDFPLTRDELREKLMEKGIGTAVHYPMPVHHQPLYQRLGYSKDCCPNAIEASKRVLSLPVHPAVSKEDINYIIRTLEELG | not soluble
18 | AHHHHHHGSKVEGFVASLRNAETIDDLFAILKKKGAPVVEFDGMKKLVIVEGDFEGEKFWTEINGAKANLALGDAMLNAASVPFKCKRDFTGGNLILLDFDSIESNEFLIAYVSEKSGVYFHVKAEEVKEITKEEYDELKDRMPEFKAKSYSEEEMEGMGAFFG | soluble
19 | AHHHHHHGSKWEEWKPFYERIVKEMGYSIEEDRRAAELLRDILMENDNYIIKEELNSIIMQKVYVFGAGPNLEEALKKGDFKDGTKIAADGATSALLEYGITPDVVVTDLDGRIRDLLEASRKAVMVVHAHGDNMDKLPLVVEFPLVLGTCQTEPLDIVYNFGGFTDGDRAAFLAEEMGAKEIVLVGFDFSGIVGKWSKPWLRDHTPAWESKMKKLKFARELLEWLKNNGRAKIIEFSI | not soluble
20 | AHHHHHHGSNQLEAVREKLRVIRMLRVLKKTYTYEDLSEITGLPVTVLNRYVKGKVLPSVERARELFEKLSPYLNLEEEVKKRLRFDSHGFFDSMSVLSDTNLLALISEDVALKYMKVGVEKILTAATDGIPLAVQIANELGVDVVYAKKKKEVGVERFYEVNYIPSASGSITTLYLPTWALKKGERVLIVDDVVRSGETQRALVELCRQAGAIPVGMFFLISVGDIVERLKEEYNIPVEALVNL | soluble
21 | AHHHHHHGSTLRLLNDFVKDKLFGETVLVENNSYLGVETLLFVIFKLGEELNVPILVEDVLDTFSIYKKHLEMLGLKTPENIKILKIGGSEEGKGVVKRIPFDFDISRYLLEYGKSFEDVSPKEKFIDLVFGLDRFFILIDNLIDTAKLLNSIKNYIHNENRTAFYFIEANLLKATKPIILYYLEDIATSVVRINQEKNILTFEPVKDIWSVRNKINQISISFGDLFRETL | not soluble
22 | AHHHHHHGSVEVKKHKFPGVYVVIDDDGSEKIATKNLVPGQRVYGERVIKWEGEEYRIWNPHRSKLGAAIVNGLKNFPIKPGKSVLYLGIASGTTASHVSDIVGWEGKIYGIEFSPRVLRELVPIVEERRNIIPILGDATKPEEYRALVTKVDVIFEDVAQPTQAKILIDNAKAYLKRGGYGMIAVKSRSIDVTKEPEQVFKEVERELSEYFEVIERLNLEPYEKDHALFVVRKP | soluble
23 | AIAADSAVRGPPGMGGTSTDNMDSVVQGDRRPGSHKGFVEEMRFVAMRLHTRDQAKEGTLEESALPIQEWQPSQQDYLQFLVDSKHVYDFFENFMNQSQDNMFVNFRRTGLERVSALEEDLDWFRQRGFSIPKPEKPGVAYVEYLQSLVQDKPHALLCHWYNFYFAHTAGGRMIGRLMSKLLFDGHVFEFYKWEGDVKQILDQVRVKIDETARDWPREVKDECLKETGLSFSYSGTILGHLAKRG | soluble

From the DeepSol protein solubility set
